# Test results: patent US20050048528A1 (WALTER AND ELIZA HALL INSTITUTE OF MEDICAL RESEARCH, published 2005)
# B1: Flag-tagged LMO4 (full-length) (other, UniProt P61968 1-165, looked up, not shown: small tags and cut ends)
# chain: MVNPGSSSQPPPVTAGSLSWKRCAGCGGKIADRFLLYAMDSYWHSRCLKCSCCQAQLGDIGTSCYTKSGMILCRNDYIRLFGNSGACSACGQSIPASELVMRAQGNVYHLKCFTCSTCRNRLVPGDRFHYINGSLFCEHDRPTALINGHLNSLQSNPLLPDQKVC
# notes: mature; also called Flag-LMO4; LM04
# B2: endogenous LMO4 of human HBL100 breast epithelial cells (other, UniProt P61968 1-165, looked up)
# chain: B1 chain
# notes: mature; also called native LMO4; 17 kD LMO4 protein
# B3: GST-LMO4 fusion protein (full-length mouse LMO4 in pGEX-2T) (other, UniProt P61969 1-165, looked up)
# chain: B1 chain
# notes: mature; Expressed in bacterial strain UT5600, immobilised on glutathione sepharose; not shown: glutathione-S-transferase as encoded by pGEX-2T; linker to LMO4 not described
# B4: Flag-tagged second LIM domain of LMO4 (residues 79-165) (other, UniProt P61968 79-165, looked up, not shown: small tags and cut ends)
# chain: RLFGNSGACSACGQSIPASELVMRAQGNVYHLKCFTCSTCRNRLVPGDRFHYINGSLFCEHDRPTALINGHLNSLQSNPLLPDQKVC
# notes: also called LIM2
# Key:
# [1] = target: BRCA1 activation domain (amino acids 1293-1863) fused to the Gal4 DNA-binding domain (human, UniProt P04386 1-147; P38398 1293-1863); assay: cell-based or functional assay
# HA-CtIP (59-320) = target: T1, HA-CtIP (59-320) (human, UniProt Q99708 59-320); assay: co-immunoprecipitation (anti-Flag) / anti-HA western blot, transfected 293T cells
# T1 construct: range 59-320
# Procedure: (§1) FIG. 7: Two regions within CtIP specifically interact with LMO4. A, Schematic representation of wild-type CtIP and deletion mutant constructs that were tested for interaction with LMO4 in mammalian cells. The region that associates with BRCA1 and two putative leucine zipper (LZ) domains are indicated. A summary of each mutant's ability to interact with LMO4 is shown. […] Lysates were prepared and proteins immunoprecipitated using anti-Flag monoclonal antibody (F) or control isotype-matched (C) monoclonal antibody. After SDS-PAGE electrophoresis, western blotting was performed using α-HA antibody, specific for CtIP protein. Western blot analysis confirmed expression of Flag-LMO4 and CtIP mutant proteins (lower panels).
# (§2) Cell extracts (0.5 ml) were prepared in whole cell lysis buffer (150 mM NaCl, 5 mM EDTA, 50 mM Tris pH7.5, 1% Nonidet P-40, 1 mM DTT) containing protease inhibitors (1 mM phenylmethylsulfonyl fluoride, 1 μg/ml leupeptin, 1 μg/ml pepstatin, 1 μg/ml aprotinin) and normalised for protein concentration, as determined by Bradford analysis (BioRad). Proteins were immunoprecipitated with either anti-Flag M2 (Sigma) or anti-myc 9E10 and protein G sepharose (Amersham Pharmacia Biotech.), and separated by SDS-PAGE (Novex). […]
# HA-CtIP (281-620) = HA-CtIP (281-620) (human, UniProt Q99708 281-620); assay: as above
# Procedure: as §1, §2
# [2] = target: T2, endogenous CtIP of human HBL100 breast epithelial cells (human, UniProt Q99708 1-897); assay: immunoprecipitation of HBL100 nuclear extracts with anti-LMO4 antisera / anti-CtIP western blot (FIG. 6D)
# T2 construct: mature; also called native CtIP
# Procedure: (§3) A, CtIP associates with LMO4 and LMO2. […] Lysates were prepared and proteins immunoprecipitated with the indicated specific antisera. F, Flag; C, control isotype-matched monoclonal antibody. Immunoblotting was performed with the antibodies indicated under each panel. Lane 4 depicts the reciprocal immunoprecipitation experiment performed using an anti-CtIP antibody. The 25 kD bands in lane 4 represent light chain. Western blot analysis of lysates confirmed expression of CtIP and LMO proteins. Note the different size markers indicated for LMO proteins detected by western analysis using anti-Flag antibody (lane 4). B, The first LIM domain but not the second LIM domain of LMO4 interacts with CtIP. […] Cell extracts were immunoprecipitated with anti-Flag (F) antibody, then immunoblotted with anti-CtIP antisera. Western blot analysis of lysates confirmed expression of CtIP and LIM polypeptides (lower panels). […] Cell extracts were immunoprecipitated with anti-Flag (F) antibody, then immunoblotted with anti-CtIP antibody. Western blot analysis of lysates confirmed expression of CtIP and LIM proteins (lower panels). D, Interaction between endogenous LMO4 and CtIP proteins in HBL100 epithelial cells. Nuclear extracts were immunoprecipitated with pre-immune serum (lane 1) or anti-LMO4 antisera (lane 2), then blotted using anti-CtIP monoclonal antibody. […]
# [3] = target: T3, endogenous BRCA1 of human HBL100 breast epithelial cells (human, UniProt P38398 1-1863); assay: immunoprecipitation of HBL100 nuclear lysates with rat anti-LMO4 monoclonal / anti-BRCA1 western blot (FIG. 9B)
# T3 construct: mature; also called native BRCA1; BRCA1 (220 kD)
# From the text: Nuclear lysates were immunoprecipitated with a rat anti-LMO4 monoclonal (lane 2) or control antibody (lane 3), then immunoblotted with anti-BRCA1 (upper panel) or anti-CtIP (middle panel) monoclonal antibody. The immunoprecipitate was divided between two SDS-polyacrylamide gels, one of which underwent extended electrophoresis for detection of BRCA1 (220 kD) while the other was immunoblotted with anti-CtIP antibody. As a control, immunoprecipitate was also blotted with anti-LMO4 monoclonal antibody (lower panel). Lysate from HBL100 cells was loaded in an adjacent lane to provide a size control for the respective proteins (lane 1), indicated by arrows. C, Interaction between LMO4, CtIP, BRCA1 and Ldb1 in mammalian cells. […] Western blot analysis confirmed high level expression of individual proteins in these transfectants (lane 1).
# For detection of endogenous proteins, nuclear extracts from human HBL100 cells were prepared (Watters, D., Khanna, K. K., Beamish, H., Birrell, G., Spring, K., Kedar, P., Gatei, M., Stenzel, D., Hobson, K., Kozlov, S., Zhang, N., Farrell, A., Ramsay, J., Gatti, R., and Lavin, M. (1997) Oncogene 14(16), 1911-21). Proteins were immunoprecipitated with either anti-LMO4 rabbit antisera or a rat anti-LMO4 monoclonal antibody and protein G sepharose, and fractionated by SDS-PAGE. […]
# [4] = target: T4, HA-tagged BRCA1 SZ fragment (residues 1528-1863) (human, UniProt P38398 1528-1863, 35S-methionine-labeled in the in vitro binding assay); assay: in vitro binding of 35S-labeled BRCA1-SZ to GST-LMO4 on glutathione sepharose, SDS-PAGE
# T4 construct: also called BRCT (SZ) region
# Procedure: FIG. 10: The C-terminal BRCT domains of BRCA1 mediate interaction with LMO4. […] Lysates were immunoprecipitated with anti-Flag (F) or control (C) antibody, then western blotted with anti-HA antibody. B, LMO4 and the BRCT domain interact in vitro. […] Bound proteins were analysed by SDS-PAGE. Arrow depicts the BRCA1-SZ protein. C, LMO4 and the BRCT (SZ) region of BRCA1 interact in yeast Hf7c cells. Yeast cells were cotransformed with the indicated expression vectors and plated on media deficient in his, leu and trp. Staining for β-galactosidase activity verified that the His⁺ colonies obtained for LMO4+CtIP and LMO4+BRCA1 (SZ) transformants were also β-Gal⁺. No colonies were obtained for Hf7c cells transformed with BRCA1 (SZ)+lamin, BRCA1 (SZ) alone or LMO4 alone.
# Binding assays were carried out with a 10 μl aliquot of […] BRCA1-SZ primed lysate and 100 μl (50% slurry of GST-sepharose beads; Amersham Pharmacia) of GST-LMO4 or GST-only protein in GST interaction buffer (150 mM NaCl, 10 mM Tris pH 8, 0.3% NP-40, 1 mM DTT, 0.25% BSA and 0.5 mM phenylmethylsulfonyl fluoride) for 2 hours at 4° C. The beads were subsequently washed twice in GST interaction buffer containing BSA, followed by two more washes in GST interaction buffer without BSA. Finally, the bound BRCA1 C-terminal polypeptide was eluted by boiling the beads for 5 min in 30 μl loading buffer and analysed by SDS-PAGE.
# [5] = target: CtIP (residues 45-897), human, from pCMV-HA-ns311 (human, UniProt Q99708 45-897); assay: co-immunoprecipitation (anti-Flag) / anti-CtIP western blot, transfected 293T cells
# Procedure: as §3, with “FIG. 6: Interaction between LM04 and CtIP requires a single LIM domain and appears to be specific for the LMO subclass. A,” for “A,”, “cells.” for “cells. Nuclear extracts were immunoprecipitated with pre-immune serum (lane 1) or anti-LMO4 antisera (lane 2), then blotted using anti-CtIP monoclonal antibody.”
# Sequence of HA-CtIP (281-620) (Q99708 281-620 limits assumed): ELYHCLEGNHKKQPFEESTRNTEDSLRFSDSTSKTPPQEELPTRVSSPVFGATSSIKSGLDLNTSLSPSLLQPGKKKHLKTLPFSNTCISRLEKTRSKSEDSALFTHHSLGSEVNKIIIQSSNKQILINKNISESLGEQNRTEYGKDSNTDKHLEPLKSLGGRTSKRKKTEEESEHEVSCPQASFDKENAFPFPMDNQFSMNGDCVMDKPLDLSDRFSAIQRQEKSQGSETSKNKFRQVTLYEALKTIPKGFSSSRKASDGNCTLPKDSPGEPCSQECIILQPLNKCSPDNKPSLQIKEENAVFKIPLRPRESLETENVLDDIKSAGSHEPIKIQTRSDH
# T1 sequence (Q99708 59-320 limits assumed): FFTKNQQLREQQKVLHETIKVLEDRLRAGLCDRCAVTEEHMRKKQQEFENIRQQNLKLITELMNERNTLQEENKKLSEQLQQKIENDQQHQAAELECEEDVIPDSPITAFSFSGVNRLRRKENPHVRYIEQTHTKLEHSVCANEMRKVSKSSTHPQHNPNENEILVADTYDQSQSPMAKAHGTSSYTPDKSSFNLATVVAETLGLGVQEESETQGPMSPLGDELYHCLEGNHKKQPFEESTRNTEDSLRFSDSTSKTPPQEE
# T4 sequence (P38398 1528-1863): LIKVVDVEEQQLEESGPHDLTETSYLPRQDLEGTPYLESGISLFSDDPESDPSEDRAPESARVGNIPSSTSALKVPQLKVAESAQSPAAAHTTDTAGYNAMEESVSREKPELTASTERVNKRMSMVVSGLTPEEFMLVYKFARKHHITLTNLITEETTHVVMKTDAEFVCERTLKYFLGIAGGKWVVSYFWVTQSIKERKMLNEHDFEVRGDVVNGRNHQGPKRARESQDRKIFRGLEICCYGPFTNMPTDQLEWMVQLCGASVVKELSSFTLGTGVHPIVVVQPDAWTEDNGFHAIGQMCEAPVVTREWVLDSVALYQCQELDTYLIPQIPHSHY
# T3 sequence (P38398 whole entry): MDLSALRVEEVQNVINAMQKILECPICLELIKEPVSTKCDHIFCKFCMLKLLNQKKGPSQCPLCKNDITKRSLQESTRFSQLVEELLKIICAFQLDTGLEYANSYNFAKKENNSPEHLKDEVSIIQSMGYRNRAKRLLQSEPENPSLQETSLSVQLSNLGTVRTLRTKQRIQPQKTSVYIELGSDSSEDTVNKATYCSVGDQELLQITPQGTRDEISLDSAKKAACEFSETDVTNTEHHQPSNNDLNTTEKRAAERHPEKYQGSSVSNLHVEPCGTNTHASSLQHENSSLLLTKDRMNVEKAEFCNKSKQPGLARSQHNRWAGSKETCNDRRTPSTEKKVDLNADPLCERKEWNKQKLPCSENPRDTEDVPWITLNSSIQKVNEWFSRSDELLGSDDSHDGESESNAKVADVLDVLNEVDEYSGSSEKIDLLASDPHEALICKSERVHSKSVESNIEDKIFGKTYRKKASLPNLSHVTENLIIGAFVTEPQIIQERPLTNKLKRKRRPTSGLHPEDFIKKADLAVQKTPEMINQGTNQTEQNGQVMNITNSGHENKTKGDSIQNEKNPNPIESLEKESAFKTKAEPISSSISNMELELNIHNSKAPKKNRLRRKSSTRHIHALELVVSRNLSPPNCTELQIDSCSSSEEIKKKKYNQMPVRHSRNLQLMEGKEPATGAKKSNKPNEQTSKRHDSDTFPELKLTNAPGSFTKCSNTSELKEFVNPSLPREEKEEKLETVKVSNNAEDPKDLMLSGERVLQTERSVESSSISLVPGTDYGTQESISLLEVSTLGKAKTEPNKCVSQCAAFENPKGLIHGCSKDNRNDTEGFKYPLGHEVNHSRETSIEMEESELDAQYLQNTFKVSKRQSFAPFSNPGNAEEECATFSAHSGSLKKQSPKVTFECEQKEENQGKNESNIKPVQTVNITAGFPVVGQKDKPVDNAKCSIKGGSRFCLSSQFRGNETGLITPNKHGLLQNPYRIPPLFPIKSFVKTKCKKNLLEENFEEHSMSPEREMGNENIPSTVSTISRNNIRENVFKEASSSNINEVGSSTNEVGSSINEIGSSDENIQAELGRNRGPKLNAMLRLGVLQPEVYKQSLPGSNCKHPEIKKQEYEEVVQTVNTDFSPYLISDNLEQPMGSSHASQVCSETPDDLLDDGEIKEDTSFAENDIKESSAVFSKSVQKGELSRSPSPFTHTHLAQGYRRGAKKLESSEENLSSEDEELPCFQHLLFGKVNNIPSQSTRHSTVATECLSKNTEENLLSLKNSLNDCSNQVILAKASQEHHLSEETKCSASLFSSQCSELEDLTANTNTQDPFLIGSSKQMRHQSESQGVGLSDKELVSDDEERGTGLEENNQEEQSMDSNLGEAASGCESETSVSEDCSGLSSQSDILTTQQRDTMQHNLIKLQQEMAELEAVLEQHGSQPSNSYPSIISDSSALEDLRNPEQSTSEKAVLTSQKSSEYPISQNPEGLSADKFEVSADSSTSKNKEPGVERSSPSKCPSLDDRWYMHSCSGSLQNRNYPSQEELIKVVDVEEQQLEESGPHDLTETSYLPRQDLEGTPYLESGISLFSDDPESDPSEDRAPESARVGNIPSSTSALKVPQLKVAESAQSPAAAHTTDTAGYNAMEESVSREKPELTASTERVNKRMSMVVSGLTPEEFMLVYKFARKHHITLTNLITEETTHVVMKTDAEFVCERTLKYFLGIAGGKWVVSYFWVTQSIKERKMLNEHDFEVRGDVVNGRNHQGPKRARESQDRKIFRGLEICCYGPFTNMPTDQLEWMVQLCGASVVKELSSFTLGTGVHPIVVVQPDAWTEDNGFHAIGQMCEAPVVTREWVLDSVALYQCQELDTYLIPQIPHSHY
# Sequence of CtIP (residues 45-897), human, from pCMV-HA-ns311 (Q99708 45-897 limits assumed): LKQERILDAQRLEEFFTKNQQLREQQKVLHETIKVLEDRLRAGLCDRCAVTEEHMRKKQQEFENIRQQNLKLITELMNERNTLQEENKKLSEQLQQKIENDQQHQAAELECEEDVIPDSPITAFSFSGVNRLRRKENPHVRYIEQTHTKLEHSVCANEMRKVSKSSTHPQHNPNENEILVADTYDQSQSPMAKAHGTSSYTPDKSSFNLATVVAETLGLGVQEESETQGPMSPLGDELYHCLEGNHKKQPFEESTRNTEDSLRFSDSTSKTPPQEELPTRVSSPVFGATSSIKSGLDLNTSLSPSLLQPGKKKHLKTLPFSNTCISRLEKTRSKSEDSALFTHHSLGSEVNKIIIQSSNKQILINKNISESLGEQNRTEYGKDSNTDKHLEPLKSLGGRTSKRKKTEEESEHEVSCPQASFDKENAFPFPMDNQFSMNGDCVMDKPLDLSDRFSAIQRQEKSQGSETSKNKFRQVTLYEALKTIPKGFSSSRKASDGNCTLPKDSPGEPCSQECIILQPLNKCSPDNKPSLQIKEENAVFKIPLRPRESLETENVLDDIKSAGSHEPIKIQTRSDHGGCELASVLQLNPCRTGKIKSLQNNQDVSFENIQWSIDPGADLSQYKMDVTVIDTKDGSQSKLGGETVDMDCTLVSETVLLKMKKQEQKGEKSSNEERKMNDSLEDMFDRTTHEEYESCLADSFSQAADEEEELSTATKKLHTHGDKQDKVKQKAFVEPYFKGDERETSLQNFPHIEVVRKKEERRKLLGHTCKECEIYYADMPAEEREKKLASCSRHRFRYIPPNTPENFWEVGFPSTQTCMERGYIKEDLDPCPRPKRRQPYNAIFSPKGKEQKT
# T2 sequence (Q99708 whole entry): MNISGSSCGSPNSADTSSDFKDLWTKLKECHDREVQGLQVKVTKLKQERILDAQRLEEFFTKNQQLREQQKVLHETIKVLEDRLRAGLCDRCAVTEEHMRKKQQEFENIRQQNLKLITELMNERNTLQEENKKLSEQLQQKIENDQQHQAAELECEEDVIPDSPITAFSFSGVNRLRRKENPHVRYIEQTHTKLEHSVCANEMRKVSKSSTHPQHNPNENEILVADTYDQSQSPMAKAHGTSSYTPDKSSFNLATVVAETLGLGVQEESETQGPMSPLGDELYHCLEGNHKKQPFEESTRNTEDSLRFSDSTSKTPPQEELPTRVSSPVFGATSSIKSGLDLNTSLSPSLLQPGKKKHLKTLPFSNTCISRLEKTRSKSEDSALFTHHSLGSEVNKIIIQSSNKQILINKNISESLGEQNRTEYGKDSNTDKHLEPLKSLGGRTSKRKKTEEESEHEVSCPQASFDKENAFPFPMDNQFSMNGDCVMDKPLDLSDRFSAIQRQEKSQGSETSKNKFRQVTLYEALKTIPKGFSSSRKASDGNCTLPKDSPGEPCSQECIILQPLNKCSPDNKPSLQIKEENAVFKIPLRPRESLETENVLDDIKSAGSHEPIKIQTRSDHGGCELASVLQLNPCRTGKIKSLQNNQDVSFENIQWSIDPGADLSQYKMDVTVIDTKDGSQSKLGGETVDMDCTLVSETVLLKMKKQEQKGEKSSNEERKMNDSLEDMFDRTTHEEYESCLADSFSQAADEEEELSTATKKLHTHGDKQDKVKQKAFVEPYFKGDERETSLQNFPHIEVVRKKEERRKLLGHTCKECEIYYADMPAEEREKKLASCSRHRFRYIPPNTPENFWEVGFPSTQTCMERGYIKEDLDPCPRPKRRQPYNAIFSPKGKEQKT
binder,measurement,setting,value
B1,transcription of the Gal4-CAT reporter gene in 293T cells (CAT ELISA),[1],~3 fold
same,binding result,HA-CtIP (59-320),no binding
same,binding result,HA-CtIP (281-620),no binding
B2,binding result,[2],binds
same,binding result,[3],binds
B3,binding result,[4],binds
B4,binding result,[5],no binding
